Data taken from IntAct's records for PubMed 31515488.

B1: AP-4 complex accessory subunit RUSC1 (Homo sapiens), Q9BVN2 (parent)
chain: MLSPQRALLCNLNHIHLQHVSLGLHLSRRPELQEGPLSTPPPPGDTGGKESRGPCSGTLVDANSNSPAVPCRCCQEHGPGLENRQDPSQEEEGAASPSDPGCSSSLSSCSDLSPDESPVSVYLRDLPGDEDAHPQPSIIPLEQGSPLASAGPGTCSPDSFCCSPDSCSGASSSPDPGLDSNCNALTTCQDVPSPGLEEEDERAEQDLPTSELLEADDGKIDAGKTEPSWKINPIWKIDTEKTKAEWKTTENNNTGWKNNGNVNSSWKSEPEKFDSGWKTNTRITDSGSKTDAGKIDGGWRSDVSEEPVPHRTITSFHELAQKRKRGPGLPLVPQAKKDRSDWLIVFSPDTELPPSGSPGGSSAPPREVTTFKELRSRSRAPAPPVPPRDPPVGWALVPPRPPPPPVPPRRKKNRPGLQPIAEGQSEEGRAVSPAAGEEAPAAKEPGAQAGLEVRSSWSFAGVPGAQRLWMAEAQSGTGQLQEQKKGLLIAVSVSVDKIISHFGAARNLVQKAQLGDSRLSPDVGHLVLTTLCPALHALVADGLKPFRKDLITGQRRSSPWSVVEASVKPGSSTRSLGTLYSQVSRLAPLSSSRSRFHAFILGLLNTKQLELWFSSLQEDAGLLSLLYLPTGFFSLARGGCPSLSTELLLLLQPLSVLTFHLDLLFEHHHHLPLGPPQAPAPPGPPPALQQTMQAMLHFGGRLAQSLRGTSKEAASDPSDSPNLPTPGSWWEQLTQASRVYASGGTEGFPLSRWAPGRHGTAAEEGAQERPLPTDEMAPGRGLWLGRLFGVPGGPAENENGALKSRRPSSWLPPTVSVLALVKRGAPPEMPSPQELEASAPRMVQTHRAVRALCDHTAARPDQLSFRRGEVLRVITTVDEDWLRCGRDGMEGLVPVGYTSLVL
B2: Tubby-related protein 3 (Homo sapiens), O75386 (parent)
chain: MEASRCRLSPSGDSVFHEEMMKMRQAKLDYQRLLLEKRQRKKRLEPFMVQPNPEARLRRAKPRASDEQTPLVNCHTPHSNVILHGIDGPAAVLKPDEVHAPSVSSSVVEEDAENTVDTASKPGLQERLQKHDISESVNFDEETDGISQSACLERPNSASSQNSTDTGTSGSATAAQPADNLLGDIDDLEDFVYSPAPQGVTVRCRIIRDKRGMDRGLFPTYYMYLEKEENQKIFLLAARKRKKSKTANYLISIDPVDLSREGESYVGKLRSNLMGTKFTVYDRGICPMKGRGLVGAAHTRQELAAISYETNVLGFKGPRKMSVIIPGMTLNHKQIPYQPQNNHDSLLSRWQNRTMENLVELHNKAPVWNSDTQSYVLNFRGRVTQASVKNFQIVHKNDPDYIVMQFGRVADDVFTLDYNYPLCAVQAFGIGLSSFDSKLACE

Variants of: B1
Conditions: with pnma1_human PNMA1, Q8ND90
Chain of pnma1_human PNMA1, Q8ND90 (Q8ND90 whole entry): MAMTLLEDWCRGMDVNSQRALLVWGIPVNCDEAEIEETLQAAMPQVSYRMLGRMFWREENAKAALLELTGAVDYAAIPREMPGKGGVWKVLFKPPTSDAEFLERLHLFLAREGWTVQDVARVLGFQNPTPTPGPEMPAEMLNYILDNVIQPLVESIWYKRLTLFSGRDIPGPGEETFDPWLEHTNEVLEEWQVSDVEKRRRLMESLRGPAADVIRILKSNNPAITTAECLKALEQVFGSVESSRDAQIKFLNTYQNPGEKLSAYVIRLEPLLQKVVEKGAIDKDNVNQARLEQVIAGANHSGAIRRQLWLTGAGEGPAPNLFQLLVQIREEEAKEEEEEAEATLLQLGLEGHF

| Variant | effect of a mutation on the interaction |
| --- | --- |
| F665S | with no effect |
| S614F | with no effect |

Next, values leading:

| effect of a mutation on the interaction | Variant |
| --- | --- |
| with no effect | G638S |
| with no effect | D880Y |

Variants of: B1
Conditions: with fam9b_human FAM9B

| Variant | effect of a mutation on the interaction |
| --- | --- |
| F665S | with no effect |
| S614F | disrupting interaction strength |

Further lines, results first:

| effect of a mutation on the interaction | Variant |
| --- | --- |
| with no effect | G638S |
| with no effect | D880Y |

Variants of: B1
Conditions: with rbpms_human RBPMS

| effect of a mutation on the interaction | Variant |
| --- | --- |
| with no effect | G638S |
| with no effect | S614F |

Variants of: B2
Conditions: with maga6_human MAGEA6, P43360
Chain of maga6_human MAGEA6, P43360 (P43360 whole entry): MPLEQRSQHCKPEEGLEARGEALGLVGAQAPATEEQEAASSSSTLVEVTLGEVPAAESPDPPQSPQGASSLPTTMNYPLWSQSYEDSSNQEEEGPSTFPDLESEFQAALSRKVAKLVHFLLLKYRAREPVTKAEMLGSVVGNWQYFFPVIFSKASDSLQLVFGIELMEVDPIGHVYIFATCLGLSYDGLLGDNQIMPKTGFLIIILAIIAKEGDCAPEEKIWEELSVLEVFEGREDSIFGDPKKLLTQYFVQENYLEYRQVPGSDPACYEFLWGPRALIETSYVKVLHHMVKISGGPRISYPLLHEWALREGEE

| effect of a mutation on the interaction | Variant |
| --- | --- |
| disrupting interaction strength | G267S |

Variants of: B2
Conditions: with anr54_human ANKRD54, Q6NXT1
Chain of anr54_human ANKRD54, Q6NXT1 (Q6NXT1 whole entry): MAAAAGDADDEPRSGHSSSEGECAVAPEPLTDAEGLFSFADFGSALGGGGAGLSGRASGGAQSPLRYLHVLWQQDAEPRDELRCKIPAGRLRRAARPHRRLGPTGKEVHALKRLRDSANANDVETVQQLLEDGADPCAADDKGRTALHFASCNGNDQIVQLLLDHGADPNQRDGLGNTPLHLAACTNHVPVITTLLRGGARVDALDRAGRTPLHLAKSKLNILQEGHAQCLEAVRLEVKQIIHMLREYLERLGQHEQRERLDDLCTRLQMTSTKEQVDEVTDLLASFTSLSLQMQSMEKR

| effect of a mutation on the interaction | Variant |
| --- | --- |
| with no effect | G267S |
